Molecular target: the molecule itself
Assay: SEC

B1: EAL domain of TBD1265 from Thiobacillus denitrificans (aa 487-758) (domain or fragment)
chain: not shown
modifications: Se-Met substituted (for the crystals)
B1 was tested, and the “stoichiometry N” value was 2.

Source: paper PMC2945410 (Journal of molecular biology, 2010)
